# Data published in patent US20140086913A1 (Gilead, published 2014).
# T1: mouse ECD-DDR1-Fc (mouse; human, UniProt Q03146 22-414)
# T1 construct: also called mouse DDR1-ECD; wild-type mouse DDR1-ECD; not shown: human IgG1 Fc of the vector pFuse-hIgG1-Fc1 (Invivogen)
# T1 sequence: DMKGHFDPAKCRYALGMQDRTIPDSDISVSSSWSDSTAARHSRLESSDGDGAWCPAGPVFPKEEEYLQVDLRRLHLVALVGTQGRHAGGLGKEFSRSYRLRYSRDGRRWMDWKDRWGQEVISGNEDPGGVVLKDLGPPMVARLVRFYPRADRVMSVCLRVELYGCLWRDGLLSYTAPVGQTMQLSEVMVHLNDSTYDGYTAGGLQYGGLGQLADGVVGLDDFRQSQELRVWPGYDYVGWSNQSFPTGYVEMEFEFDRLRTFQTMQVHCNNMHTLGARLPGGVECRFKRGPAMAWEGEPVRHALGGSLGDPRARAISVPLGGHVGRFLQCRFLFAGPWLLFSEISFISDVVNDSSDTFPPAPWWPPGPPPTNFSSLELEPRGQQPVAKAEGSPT
# T2: human DDR2 stably expressed on HEK293 cells (human, UniProt Q16832 22-855)
# T2 construct: whole, on cells; also called hDDR2
# T2 sequence (looked up): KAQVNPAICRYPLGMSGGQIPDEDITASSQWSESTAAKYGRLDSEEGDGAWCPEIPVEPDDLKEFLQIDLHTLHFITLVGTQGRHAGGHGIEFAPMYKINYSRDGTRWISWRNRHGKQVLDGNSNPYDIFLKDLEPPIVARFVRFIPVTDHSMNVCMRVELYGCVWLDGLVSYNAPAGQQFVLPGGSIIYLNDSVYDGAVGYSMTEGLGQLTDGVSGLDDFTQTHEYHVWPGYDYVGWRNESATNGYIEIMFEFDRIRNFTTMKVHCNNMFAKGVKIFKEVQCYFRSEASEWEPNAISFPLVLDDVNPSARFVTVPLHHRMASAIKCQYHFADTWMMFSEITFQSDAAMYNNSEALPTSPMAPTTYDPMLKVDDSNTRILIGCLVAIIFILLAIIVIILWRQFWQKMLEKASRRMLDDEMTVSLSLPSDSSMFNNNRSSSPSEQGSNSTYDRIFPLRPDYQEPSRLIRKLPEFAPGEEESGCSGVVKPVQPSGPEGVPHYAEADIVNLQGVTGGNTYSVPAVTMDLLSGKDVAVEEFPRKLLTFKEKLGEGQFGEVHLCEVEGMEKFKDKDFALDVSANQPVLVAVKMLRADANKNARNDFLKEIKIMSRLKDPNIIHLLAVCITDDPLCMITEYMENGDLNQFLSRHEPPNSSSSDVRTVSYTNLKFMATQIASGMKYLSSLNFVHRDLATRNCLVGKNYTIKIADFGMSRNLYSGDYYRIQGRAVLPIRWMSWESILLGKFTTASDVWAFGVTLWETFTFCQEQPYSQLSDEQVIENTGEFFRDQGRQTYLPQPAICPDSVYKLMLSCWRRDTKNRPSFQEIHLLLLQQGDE
# B1: AB2009 (antibody, V domains shown)
# VH: EVQLVESGGGLVQPGGSLKFSCAASGFTFSSYGMSWVRQTPDKRLELVAIINSHGFSTYYPDSVKGRFTISRDNAKNTLYLQMSSLKSEDTAIYYCARGGYGNYGMDYWGQGTSVTVSS
# VL: DIVLTQSPASLAVSLGQRATISCRASESVDSYGNSFMHWYQQKVGQPPKLLIFRASNIESGIPARFSGSGSRTDFTLTINSVEADDVATYYCQQSNEAPYTFGGGTKLEIKR
# notes: mouse hybridoma mAb
# B2: AB2026 (antibody, V domains shown)
# VH: B1 VH
# VL: B1 VL
# notes: mouse hybridoma mAb
# B3: AB2031 (antibody, V domains shown)
# VH: B1 VH
# VL: B1 VL
# notes: mouse hybridoma mAb
# B4: AB2079 (antibody, V domains shown)
# VH: EVMLVESGGGLVKPGGSLKLSCAASGFTFSNYAMSWVRQTPEKRLEWVAKTSSGDTYTYYPDSVKGRFTISRDNAKNTLYLQMTSLRSEDTAIYYCARQDYYGITPWFFDVWGAGTTVTVSS
# VL: ENVLTQSPAIMSASPGEKVTMTCRASSSVSSIYLHWYQQKSGASPKLWIYSTSNLASGVPARFSGSGSGTSYSLTITSVEAEDAATYYCQQYSGYPLITFGAGTKLELKR
# notes: mouse hybridoma mAb
# B5: AB2021 (antibody, V domains shown)
# VH: EVKLVESGGGLVKPGGSLNLSCAASGFTFSNYAMSWSRQTPEKRLEWVASISSGGNTYYPDSVRGRFTISRDNARNILYLQMSSLRSEDTAMYYCAREPGTYNWYFDVWGAGTTVTVSS
# VL: DIVMTQSQKFMSTSVGDRVSVTCKASQNVGTNVAWYQQKPGQSLKALIYSASYRFSGVPDRFTGSGYGTDFTLTISNVQSEDLAEYFCQQCNSYPLTFGAGTKLELKR
# notes: mouse hybridoma mAb
# B6: AB2029 (antibody, V domains shown)
# VH: QVLLRQSGPGLVQPSQSLSITCTVSGFSLTTYGVHWVRQSPGKGLEWLGVIWSGGSTDYNAAFISRLTISKDNSKSQVFFKMNSLQANDTAIYYCARYYSGSSLYFAMDYWGQGTSVTVSS
# VL: NIVMTQTPKFLLVSAGDTVTITCKASQSVSNDVAWYQQKPGQSPKLLIYYASNRYTGVPDRFTGSGFGTDFTFTISTVQTEDLAVYFCQQDYSSLTFGAGTKLELKR
# notes: mouse hybridoma mAb
# Molecular target: T3, DDR1ECD-Fc (R&D Systems, Catalog #2396-DR) (human, UniProt Q08345 21-416)
# T3 construct: range 21-416; construct as described for the bought immunogen; also called human ECD-DDR1-Fc; Fc-ECD-DR1; not shown: human IgG1, Pro100-Lys330
# Experiment: ELISA
row,Binder,Kd [nM]
1,B1,0.257
2,B2,0.298
3,B3,0.257
4,B4,0.088

# Molecular target: DDR1 endogenously expressed on human cancer cell lines (T47D, HCT-116, A431) (human) (UniProt Q08345)
# Experiment: cell-based or functional assay
Binder,"EC50, DDR1 phospho-specific ELISA (T47D) [nM]","EC50, cluster formation assay (A431 cells) [nM]","Maximal inhibition, DDR1 phospho-specific ELISA (T47D) [%]",NPI of cluster formation at 66 nM (A431 cells) [%]
B5,2.26,18.5,100,106
B6,0.55,,100,100

# Molecular target: DDR1 endogenously expressed on human cancer cell lines (T47D, HCT-116, A431) (human) (UniProt Q08345)
# Experiment: cell-based or functional assay
# Remark: another data set of the same source
Binder,"EC50, DDR1 phospho-specific ELISA (T47D) [nM]","EC50, cluster formation assay (A431 cells) [nM]","Maximal inhibition, DDR1 phospho-specific ELISA (T47D) [%]",NPI of cluster formation at 66 nM (A431 cells) [%]
B1,0.47,0.43,100,127
B2,0.39,,100,115
B3,0.4,0.63,100,113
B4,0.13,,,0.5

# Molecular target: DDR1 endogenously expressed on human cancer cell lines (T47D, HCT-116, A431) (human) (UniProt Q08345)
# Experiment: flow cytometry, T47D cells
row,Binder,MFI [MFI]
1,B1,5930
2,B5,5010
3,B2,4670
4,B6,3560
5,B3,4600
6,B4,6130

# Molecular target: DDR1 endogenously expressed on human cancer cell lines (T47D, HCT-116, A431) (human) (UniProt Q08345)
# Experiment: flow cytometry, HCT116 cells
row,Binder,MFI [MFI]
1,B1,1480
2,B5,1390
3,B2,1540
4,B6,1010
5,B3,1460
6,B4,1730

# Molecular target: human DDR1 (isoform B) stably expressed on HEK293 cells (human) (UniProt Q08345)
# Experiment: flow cytometry, HEK293/hDDR1
# human DDR1 (isoform B) stably expressed on HEK293 cells (human), sequence (Q08345 19-913): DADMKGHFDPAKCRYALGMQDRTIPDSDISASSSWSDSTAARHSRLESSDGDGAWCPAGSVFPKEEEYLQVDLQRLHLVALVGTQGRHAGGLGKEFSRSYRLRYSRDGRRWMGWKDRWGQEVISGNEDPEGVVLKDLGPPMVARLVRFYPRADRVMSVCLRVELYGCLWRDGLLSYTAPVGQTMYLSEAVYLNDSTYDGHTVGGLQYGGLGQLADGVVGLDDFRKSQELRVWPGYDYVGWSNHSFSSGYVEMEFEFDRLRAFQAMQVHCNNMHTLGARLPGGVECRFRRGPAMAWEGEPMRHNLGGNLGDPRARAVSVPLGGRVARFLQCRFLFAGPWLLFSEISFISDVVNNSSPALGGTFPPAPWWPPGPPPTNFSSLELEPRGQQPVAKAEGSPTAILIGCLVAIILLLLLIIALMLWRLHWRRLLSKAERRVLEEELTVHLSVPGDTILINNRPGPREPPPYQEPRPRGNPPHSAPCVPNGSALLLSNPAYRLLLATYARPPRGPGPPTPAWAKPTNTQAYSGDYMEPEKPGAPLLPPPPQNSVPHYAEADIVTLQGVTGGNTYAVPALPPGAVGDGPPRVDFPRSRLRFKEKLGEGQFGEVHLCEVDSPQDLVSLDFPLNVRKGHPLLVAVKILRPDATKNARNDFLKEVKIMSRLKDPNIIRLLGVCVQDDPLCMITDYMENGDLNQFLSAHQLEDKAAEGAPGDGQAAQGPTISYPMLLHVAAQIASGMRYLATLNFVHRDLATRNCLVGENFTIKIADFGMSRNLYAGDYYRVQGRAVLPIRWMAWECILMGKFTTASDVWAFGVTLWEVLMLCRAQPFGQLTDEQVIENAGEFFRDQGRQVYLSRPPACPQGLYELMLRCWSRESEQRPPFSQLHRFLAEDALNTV
row,Binder,MFI [MFI]
1,B1,11900
2,B5,15800
3,B2,6350
4,B6,11700
5,B3,8540
6,B4,14300

# Molecular target: T1, mouse ECD-DDR1-Fc
# Experiment: ELISA, coated antigen
# Protocol: (§1) In this study, ELISA was used to determine the affinity of murine anti-DDR1 monoclonal antibodies to the extracellular domain (ECD) of either human or murine DDR1. A 96-well MaxiSorb ELISA plates (Nunc) were coated with 2 μg/mL of one of three purified recombinant tagged proteins: human ECD-DDR1-His protein, human ECD-DDR1-Fc, or mouse ECD-DDR1-Fc overnight at 4° C. The next day, the plates were blocked with 5% bovine serum albumin (BSA, Jackson Immunoresearch) prior to the addition of serially diluted anti-DDR1 monoclonal antibodies. Antibodies were incubated for 1 hr at room temperature. The binding of antibody to the antigen was detected by incubating samples with anti-mouse IgG-HRP (horse radish peroxidase) secondary detection antibody (Jackson Immunoresearch) for 1 hr. After a washing step, 3,3′,5,5″-tetramethylbenzidine (TMB) reagent was added for HRP to produce a colorimetric signal. The reaction was stopped by addition of 1M hydrochloric acid after 2 minutes and measured for absorbance (optical density, OD) at 450λ on a Molecular Devices plate reader. The OD values were plotted against antibody concentration and fitted using a using 4-parameter logistic equation in SoftMax software (Molecular Devices). The apparent affinity constant (KD) was taken from the C-parameter of the equation (y=(A−D)/(1+(x/C)̂B)+D). The apparent affinity constants were summarized (in some cases shown as average values) in Table 10 below. Lower value indicates higher binding affinity of the antibody to the antigen.
row,Binder,binding result
1,B5,no binding
2,B6,no binding
3,B4,no binding

# Molecular target: DDR1 with a ProLink Tag (PK) in engineered U20S cells (DiscoveRx), Q08345
# Experiment: cell-based or functional assay
row,Binder,"Mean EC50, DDR1 Tyr513 phosphorylation assay (U20S) [nM]"
1,B1,1.5
2,B5,7.71
3,B2,1.7
4,B6,4.9
5,B3,0.99

# Molecular target: T2, human DDR2 stably expressed on HEK293 …
# Experiment: flow cytometry, HEK293/hDDR2
# Protocol: Additional monoclonal antibodies were obtained from individual hybridomas in Example 1 and were characterized for their properties.
# Cells were cultured in DMEM with 10% FBS and 0.8 mg/mL hygromycin. When cells reached 60-80% confluence, they were centrifuged at 1,200 rpm for 5 minutes, suspended in FACS buffer (1×PBS, 1% BSA), and aliquoted into a 96-well plate at 1×10⁶ cells per well. The anti-DDR1 monoclonal antibodies or appropriate isotype controls at 2 μg per 1×10⁶ cells were added and incubated at 4° C. for 1 hr. The cells were washed twice with FACS buffer then stained with the anti-IgG-PE secondary antibody at 10 μL per well at 4° C. for 1 hr. The cells were washed again and measured for the MFI values or signals using flow cytometry (LSR Fortessa instrument, BD Biosciences). Background MFI signals from vector-only cells (i.e. no DDR1 or DDR2 expression) was subtracted from those of the cells treated with antibodies. Higher MFI values or signals indicated increased binding or specificity of the anti-DDR1 antibodies to the DDR1 on the cell surface.
row,Binder,MFI [MFI]
1,B1,277
2,B5,92
3,B2,203
4,B6,263
5,B3,195
6,B4,326

# Molecular target: T3, DDR1ECD-Fc (R&D Systems, Catalog …)
# Experiment: ELISA, coated antigen, apparent KD
# Protocol: as §1
row,Binder,Kd [nM]
1,B1,0.257
2,B5,0.252
3,B2,0.298
4,B6,0.302
5,B3,0.257
6,B4,0.0883

# Molecular target: T4, human ECD-DDR1-His protein (human, UniProt Q08345 21-416)
# T4 construct: also called huDDR1-ECD-His; DDR1ECD-6Xhis; not shown: His tag
# Experiment: ELISA, coated antigen, apparent KD
# Protocol: as §1
row,Binder,Kd [nM]
1,B1,0.197
2,B5,0.153
3,B2,0.161
4,B6,0.397
5,B3,0.148
6,B4,0.07

# Molecular target: T1, mouse ECD-DDR1-Fc
# Experiment: ELISA, coated antigen, apparent KD
# Protocol: as §1
row,Binder,Kd [nM]
1,B1,6.93
2,B2,17.9
3,B3,17.3

# Molecular target: human DDR1 (isoform B) stably expressed on HEK293 cells (human) (UniProt Q08345)
# Experiment: flow cytometry, HEK293/human DDR1, normalized to empty-vector cells
row,Binder,MFI [MFI]
1,B1,11900
2,B2,6350
3,B3,8540
4,B4,14300
